The record followed here is patent US20110177504A1.

The target of the assay is murine LY6C polypeptide on YAMC cells (murine) (UniProt P0CW02). In words: cell-based or functional assay.
UniProt P0CW02, sequence (P0CW02 27-109 limits assumed): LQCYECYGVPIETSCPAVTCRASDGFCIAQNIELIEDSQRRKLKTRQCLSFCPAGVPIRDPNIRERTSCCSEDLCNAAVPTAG

“Anti-LY6C (clone HK1.4), Southern Biotech (antibody)”: the CCL2 mRNA, quantitative RT-PCR, YAMC cells on plate-bound antibody 24 h, IFN pre-treatment was found to be 16.1 fold change; the CCL2 mRNA, quantitative RT-PCR, YAMC cells on plate-bound antibody 24 h, Media pre-treatment was found to be 8.81 fold change; the CCL4 mRNA, quantitative RT-PCR, YAMC cells on plate-bound antibody 24 h, IFN pre-treatment amounted to 16.1 fold change; the CCL4 mRNA, quantitative RT-PCR, YAMC cells on plate-bound antibody 24 h, Media pre-treatment was 3.15 fold change. In addition, the CCL5 mRNA, quantitative RT-PCR, YAMC cells on plate-bound antibody 24 h, IFN pre-treatment was 10.1 fold change; the CCL5 mRNA, quantitative RT-PCR, YAMC cells on plate-bound antibody 24 h, Media pre-treatment was determined as 3.31 fold change; the CCL7 mRNA, quantitative RT-PCR, YAMC cells on plate-bound antibody 24 h, IFN pre-treatment worked out at 5.81 fold change; the CCL7 mRNA, quantitative RT-PCR, YAMC cells on plate-bound antibody 24 h, Media pre-treatment came out at 3.37 fold change. Further, the CCL8 mRNA, quantitative RT-PCR, YAMC cells on plate-bound antibody 24 h, IFN pre-treatment amounted to 110 fold change; the CCL8 mRNA, quantitative RT-PCR, YAMC cells on plate-bound antibody 24 h, Media pre-treatment amounted to 12.8 fold change; the CCL25 mRNA, quantitative RT-PCR, YAMC cells on plate-bound antibody 24 h, IFN pre-treatment was 1.46 fold change; the CCL25 mRNA, quantitative RT-PCR, YAMC cells on plate-bound antibody 24 h, Media pre-treatment worked out at 1.16 fold change. For the same substance, the CXCL1 mRNA, quantitative RT-PCR, YAMC cells on plate-bound antibody 24 h, IFN pre-treatment was found to be 13.4 fold change; the CXCL1 mRNA, quantitative RT-PCR, YAMC cells on plate-bound antibody 24 h, Media pre-treatment is 11.6 fold change; the CXCL2 mRNA, quantitative RT-PCR, YAMC cells on plate-bound antibody 24 h, IFN pre-treatment is 113 fold change; the CXCL2 mRNA, quantitative RT-PCR, YAMC cells on plate-bound antibody 24 h, Media pre-treatment was determined as 21.8 fold change. Besides, the CXCL5 mRNA, quantitative RT-PCR, YAMC cells on plate-bound antibody 24 h, IFN pre-treatment is 151 fold change; the CXCL5 mRNA, quantitative RT-PCR, YAMC cells on plate-bound antibody 24 h, Media pre-treatment came out at 118 fold change; the CXCL10 mRNA, quantitative RT-PCR, YAMC cells on plate-bound antibody 24 h, IFN pre-treatment stood at 12.2 fold change; the CXCL10 mRNA, quantitative RT-PCR, YAMC cells on plate-bound antibody 24 h, Media pre-treatment was 5.11 fold change. Besides, the CXCL12 mRNA, quantitative RT-PCR, YAMC cells on plate-bound antibody 24 h, IFN pre-treatment is -3.02 fold change; the CXCL12 mRNA, quantitative RT-PCR, YAMC cells on plate-bound antibody 24 h, Media pre-treatment is -1.99 fold change; the lowest coating concentration of antibody giving detectable CXCL5 secretion, ELISA came out at 1 µg/mL.
